According to US20050025764A1 (published 2005):

Tests used:
human CD20 [1] = target: T1, human CD20 (human, UniProt P11836 1-297); assay: fixed Ramos cell ELISA, Fab 1 h, anti-His6 peroxidase, OD 450 (overall binding)
T1 sequence (looked up): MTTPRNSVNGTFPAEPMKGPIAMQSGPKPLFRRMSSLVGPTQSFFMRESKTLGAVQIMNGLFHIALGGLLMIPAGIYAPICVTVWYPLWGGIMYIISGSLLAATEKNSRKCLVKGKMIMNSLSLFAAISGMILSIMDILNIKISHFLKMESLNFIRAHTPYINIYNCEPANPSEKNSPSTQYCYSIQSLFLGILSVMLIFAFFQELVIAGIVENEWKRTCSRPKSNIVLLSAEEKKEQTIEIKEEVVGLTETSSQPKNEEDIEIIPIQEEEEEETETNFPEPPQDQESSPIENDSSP
Experimental: (§1) Ramos cells (ATCC) were grown in RPMI 1640 containing 10% heat inactivated Fetal Bovine Serum. Fifty microliters of Ramos cells (2-4×10⁶/ml), were pipetted into each well of a 96 well Poly-D-Lysine coated plate (BIOCAT Becton Dickinson Labware) and incubated at 37620 C., 5% CO₂ for 18 hours. Media was gently aspirated and […] of aqueous buffered zinc formalin (Anatech, Ltd.) was added to each well for 15 minutes at room temperature. Z-fix was removed and the plate was washed with phosphate-buffered saline (PBS) containing 0.05% Tween 20. The plate was blocked for 1 hour with 1% bovine serum albumin (BSA) in PBS. Dilutions of Fab or IgG were incubated with the fixed and blocked Ramos cells for 1 hour at room temperature. The plate was washed 3× with PBS 0.05% Tween […] of anti-His6 Peroxidase Mouse Monoclonal Antibody (Roche Diagnostics Corporation) at a 1:500 dilution were added to the wells and incubated 1 hour at room temperature. The plate was washed as above and developed with tetramethyl benzidine, and the reaction was stopped with 5N H₂SO₄. The plate absorbance was read at OD 450 nm. Dilutions of Fab and conjugate were in 1% BSA/PBS.

human CD20 [2] = target: T1, human CD20; assay: fixed Ramos cell ELISA, off-rate format: overnight incubation in PBS/BSA after the Fab step, anti-His6 peroxidase, OD 450
Experimental: as §1
(§2) IgG assays were performed similarly except IgG bound was detected with goat anti-human IgG-HRP. To compare antibody off-rate, after incubation with Fab or IgG the plates were incubated over night in PBS/BSA, before proceeding with the second antibody step. To compare antibody on-rate, incubation steps for Fab/IgG binding and with the second antibody were both of 5 minutes duration.

human CD20 [3] = target: T1, human CD20; assay: fixed Ramos cell ELISA, OD 450 nm
human CD20 [4] = target: T1, human CD20; assay: IgG binding to SKW 6.4 cells over time, free antibody by ELISA, direct kinetics KinExA software
Experimental: SKW 6.4 cells were grown in DMEM media supplemented with 10% FCS and harvested at 5-10×10⁵ cells per ml. […] An equal volume of antibody at 100 ng/ml in PBS with 1% BSA at 37620 C. was then added to the cells and the timing for the experiment started. At time intervals from 60 seconds to 10800 seconds a sample of the antibody cell solution was sampled and filtered to remove cells and bound antibody. Free antibody remaining at each time point was then quantified using the ELISA described above.
The kinetics for the antibody cell reaction was calculated using the direct kinetics KinExA software. The OD450 value for each time point was fitted using the previously calculated Kd and antigen concentration and the Kon and Koff for the reaction calculated.

human CD20 [5] = target: T1, human CD20; assay: IgG binding to SKW 6.4 B lymphoma cells, free antibody by ELISA, KinExA equilibrium software
Experimental: (§3) SKW 6.4 cells were grown in DMEM media supplemented with 10% FCS and harvested at 5-10×10⁵ cells per ml. […] For human peripheral blood B cells, fresh CD19 positively sorted B cells were obtained from Allcells. These cells were washed two times in PBS with 1% BSA and resuspended at a concentration of 8×10⁷/ml.
(§4) Twelve, 3 fold serial dilutions were then made and 100ul of each dilution placed in a 96 well plate. To each dilution […] of antibody at 100 ng/ml was added and the plate incubated at 37620 C., 5% CO₂ for 4 hours. Each sample was then filtered with a 96 well 1 micron filter (Millipore) to remove the cells and bound antibody. Free antibody in solution was then quantified using an ELISA. Briefly, free IgG was captured in a 96 well plate coated with 1 mg/ml of anti-human kappa antibody (Southern Biotechnology) and detected using an anti-human Fc antibody coupled with HRP (Southern Biotechnology). The plate was developed using Fast TMB substrate (Pierce) and read at 450 nm.
(§5) The Kd of the antibody was then determined using the KinExA equilibrium software for an unknown antigen concentration. The OD450 value for each serial dilution was fitted with an estimated antigen concentration and the actual antibody concentration. The Kd and actual antigen concentration were then calculated.

human CD20 [6] = target: T1, human CD20; assay: IgG binding to SKW 6.4 cells, KinExA equilibrium software
Experimental: as §3, §4, §5

human CD20 [7] = target: T1, human CD20; assay: fixed Ramos cell ELISA, IgG, on-rate format: 5 min IgG step and 5 min second antibody step, goat anti-human IgG-HRP, OD 450
Experimental: as §1, §2

human CD20 [8] = target: T1, human CD20; assay: fixed Ramos cell ELISA, on-rate format: 5 min Fab step and 5 min second antibody step, anti-His6 peroxidase, OD 450
Experimental: as §1
IgG assays were performed similarly except IgG bound was detected with goat anti-human IgG-HRP. […]

Molecule C2B8 Fab has an EC50 (read off the curve) (human CD20 [1]) of 0.06 µg/mL.

B1: AME 4H5 Fab (Fab, V domains shown)
VH: QVQLVQSGAEVKKPGASVKVSCKASGYTFTSYNMHWVRQAPGQGLEWMGAIYPGNGDTSYNQKFKWRVTMTRDTSTSTVYMELSSLRSEDTAVYYCARSTYYGGDWQFDQWGKGTTVTVSS
VL: DIQMTQSPSSLSASVGDRVTITCRASSSVHYIHWYQQKPGKVPKLLIYATSNLASGVPSRFSGSGSGTDFTLTISSLQPEDVATYYCQQWTFNPPTFGGGTKVEIK
notes: Fab, His-tagged (anti-His6 detection); constant regions and tag not given
For B1, the “EC50 (read off the curve)” value (human CD20 [2]) was roughly 0.1 µg/mL and the “EC50 (read off the curve)” value (human CD20 [1]) was roughly 0.06 µg/mL.

B2: AME 4H5 IgG (antibody, V domains shown)
VH: QVQLVQSGAEVKKPGASVKVSCKASGYTFTSYNMHWVRQAPGQGLEWMGAIYPGNGDTSYNQKFKWRVTMTRDTSTSTVYMELSSLRSEDTAVYYCARSTYYGGDWQFDQWGKGTTVTVSS
VL: DIQMTQSPSSLSASVGDRVTITCRASSSVHYIHWYQQKPGKVPKLLIYATSNLASGVPSRFSGSGSGTDFTLTISSLQPEDVATYYCQQWTFNPPTFGGGTKVEIK
notes: Full IgG
In the case of B2, the “maximum OD relative to the C2B8 antibody” value (human CD20 [3]) is reported as roughly 1.5 times.

B3: AME 5 IgG (antibody, V domains shown)
VH: QVQLVQSGAEVKKPGASVKVSCKASGYTFTSYNMHWVRQAPGQGLEWMGAIYPGNGDTSYNQKFKWRVTMTRDTSTSTVYMELSSLRSEDTAVYYCARSTYYGGDWQFDEWGKGTTVTVSS
VL: DIQMTQSPSSLSASVGDRVTITCRASSSVHYIHWYQQKPGKVPKLLIYATSGLASGVPSRFSGSGSGTDFTLTISSLQPEDVATYYCQTWTFNPPTFGGGTKVEIK
notes: Full IgG
Molecule B3 has a koff (human CD20 [4]) of 7.9e-05 s⁻¹, a kon (human CD20 [4]) of 580000 M⁻¹ s⁻¹ and a Kd (human CD20 [5]) of 0.145 nM. For the same molecule, the “fold enhancement of Kd compared to the C2B8 antibody” value (human CD20 [6]) was 10 fold.

B4: AME 1D10 Fab (Fab, V domains shown)
VH: EVQLVQSGAEVKKPGESLKISCKGSGYTFTSYNMHWVRQMPGKGLEWMGAIYPLNGDTSYNQKFKLQVTISADKSISTAYLQWSSLKASDTAMYYCARSTYVGGDWTFDVWGKGTTVTVSS
VL: EIVLTQSPGTLSLSPGERATLSCRASSSVPYIHWYQQKPGQAPRLLIYATSNLASGIPDRFSGSGSGTDFTLTISRLEPEDFAVYYCQQWLSNPPTFGQGTKLEIK
notes: as for B1
For B4, the “EC50 (read off the curve)” value (human CD20 [2]) was roughly 0.2 µg/mL and the “EC50 (read off the curve)” value (human CD20 [1]) was roughly 0.06 µg/mL.

B5: AME 1D10 IgG (antibody, V domains shown)
VH: EVQLVQSGAEVKKPGESLKISCKGSGYTFTSYNMHWVRQMPGKGLEWMGAIYPLNGDTSYNQKFKLQVTISADKSISTAYLQWSSLKASDTAMYYCARSTYVGGDWTFDVWGKGTTVTVSS
VL: EIVLTQSPGTLSLSPGERATLSCRASSSVPYIHWYQQKPGQAPRLLIYATSNLASGIPDRFSGSGSGTDFTLTISRLEPEDFAVYYCQQWLSNPPTFGQGTKLEIK
notes: Full IgG
With B5 the “EC50 (read off the curve)” value (human CD20 [7]) was roughly 0.4 µg/mL and the “maximum OD relative to the C2B8 antibody” value (human CD20 [3]) was roughly 1.5 times.

B6: 21E1 Hum (Fab, V domains shown)
VH: EVQLVQSGAEVKKPGESLKISCKGSGYTFTSYNMHWVRQMPGKGLEWMGAIYPGNGDTSYNQKFKGQVTISADKSISTAYLQWSSLKASDTAMYYCARSTYYGGDWSFDVWGKGTTVTVSS
VL: EIVLTQSPGTLSLSPGERATLSCRASSSVSYIHWYQQKPGQAPRLLIYATSNLASGIPDRFSGSGSGTDFTLTISRLEPEDFAVYYCQQWLSNPPTFGQGTKLEIK
notes: the panels are titled Fab; also called AME 21E1 Hum; AME 21E1 Hum Fab
B6: no binding (tested: about 7 µg/ml) (human CD20 [1]).

B7: AME 15 Fab (Fab, V domains shown)
VH: EVQLVQSGAEVKKPGESLKISCKGSGYTFTSYNMHWVRQMPGKGLEWMGAIYPLNGDTSYNRKSKLQVTISADKSISTAYLQWSSLKASDTAMYYCARSTYVGGDWTFDVWGKGTTVTVSS
VL: EIVLTQSPGTLSLSPGERATLSCRASSSVPYIHWYQQKPGQAPRLLIYATSNLASGIPDRFSGSGSGTDFTLTISRLEPEDFAVYYCQQWLSNPPTFGQGTKLEIK
notes: as for B1
B7 was tested, and the “EC50 (read off the curve)” value (human CD20 [2]) was roughly 0.2 µg/mL and the “EC50 (read off the curve)” value (human CD20 [1]) was roughly 0.05 µg/mL.

B8: AME 15 IgG (antibody, V domains shown)
VH: EVQLVQSGAEVKKPGESLKISCKGSGYTFTSYNMHWVRQMPGKGLEWMGAIYPLNGDTSYNRKSKLQVTISADKSISTAYLQWSSLKASDTAMYYCARSTYVGGDWTFDVWGKGTTVTVSS
VL: EIVLTQSPGTLSLSPGERATLSCRASSSVPYIHWYQQKPGQAPRLLIYATSNLASGIPDRFSGSGSGTDFTLTISRLEPEDFAVYYCQQWLSNPPTFGQGTKLEIK
notes: Full IgG
For B8, the “EC50 (read off the curve)” value (human CD20 [7]) was roughly 0.3 µg/mL and the “maximum OD relative to the C2B8 antibody” value (human CD20 [3]) was roughly 1.5 times.

B9: AME 18 Fab (Fab, V domains shown)
VH: EVQLVQSGAEVKKPGESLKISCKGSGRTFTSYNMHWVRQMPGKGLEWMGAIYPLTGDTSYNQKFKLQVTISADKSISTAYLQWSSLKASDTAMYYCARSYYVGGDWTFDVWGKGTTVTVSS
VL: EIVLTQSPGTLSLSPGERATLSCRASSSVPYIHWYQQKPGQAPRLLIYATSALASGIPDRFSGSGSGTDFTLTISRLEPEDFAVYYCQQWLSNPPTFGQGTKLEIK
notes: as for B1
For B9, the “EC50 (read off the curve)” value (human CD20 [8]) was roughly 0.3 µg/mL and the “EC50 (read off the curve)” value (human CD20 [1]) was roughly 0.06 µg/mL.

B10: AME 33 Fab (Fab, V domains shown)
VH: EVQLVQSGAEVKKPGESLKISCKGSGRTFTSYNMHWVRQMPGKGLEWMGAIYPLTGDTSYNQKSKLQVTISADKSISTAYLQWSSLKASDTAMYYCARSTYVGGDWQFDVWGKGTTVTVSS
VL: EIVLTQSPGTLSLSPGERATLSCRASSSVPYIHWYQQKPGQAPRLLIYATSALASGIPDRFSGSGSGTDFTLTISRLEPEDFAVYYCQQWLSNPPTFGQGTKLEIK
notes: Fab
For B10, the “EC50 (read off the curve)” value (human CD20 [8]) was roughly 0.5 µg/mL and the “EC50 (read off the curve)” value (human CD20 [1]) was roughly 0.08 µg/mL.

B11: AME 18 IgG (antibody, V domains shown)
VH: EVQLVQSGAEVKKPGESLKISCKGSGRTFTSYNMHWVRQMPGKGLEWMGAIYPLTGDTSYNQKFKLQVTISADKSISTAYLQWSSLKASDTAMYYCARSYYVGGDWTFDVWGKGTTVTVSS
VL: EIVLTQSPGTLSLSPGERATLSCRASSSVPYIHWYQQKPGQAPRLLIYATSALASGIPDRFSGSGSGTDFTLTISRLEPEDFAVYYCQQWLSNPPTFGQGTKLEIK
notes: Full IgG
For B11, the “maximum OD relative to the C2B8 antibody” value (human CD20 [3]) was roughly 1.5 times.

B12: AME 2C2 IgG (antibody, V domains shown)
VH: EVQLVQSGAEVKKPGESLKISCKGSGYTFTSYNMHWVRQMPGKGLEWMGAIYPLNGDTSYNQKFKLQVTISADKSISTAYLQWSSLKASDTAMYYCARSTYVGGDWTFDVWGKGTTVTVSS
VL: EIVLTQSPGTLSLSPGERATLSCRASSSVSYIHWYQQKPGQAPRLLIYATSNLASGIPDRFSGSGSGTDFTLTISRLEPEDFAVYYCQQWLSNPPTFGQGTKLEIK
notes: constant regions not spelled out
In the case of B12, the “EC50 (read off the curve)” value (human CD20 [7]) is reported as roughly 0.5 µg/mL.
